Reference: article doi:10.1101/2020.07.24.220665 (bioRxiv, 2020)
Where “and” joins values, the source holds several entries; their conditions need not be identical. Equal entries are not always repeated.

Target: the molecule itself
Experiment: non-reducing PAGE

| Protein | stoichiometry N | binding result |
| --- | --- | --- |
| granulin-3 (GRN-3) (natural protein, UniProt P28799 206-261, looked up) VMCPDARSRCPDGSTCCELPSGKWGCCPMPNATCCSDHLHCCPQDTVCDLIQSKCL | 2 and 3 | – |
| granulin-5 (GRN-5) (natural protein, UniProt P28799 364-417, looked up) VPCDNVSSCPSSDTCCQLTSGEWGCCPIPEAVCCSDHQHCCPQGYTCVAEGQCQ | – | binds |
